The supplement of paper PMC9112550, “Optimization of the antimicrobial peptide Bac7 by deep mutational scanning” (BMC Biology, 2022)

What follows are sequences tested on Escherichia coli TOP10 (assay: shrunken log2 fold change of peptide-encoding DNA abundance (4.5 h post-induction vs induction); higher = less antimicrobial activity (less host growth inhibition)). Conditions: time post-induction: 4.5 h; library: site-saturation at positions 5, 18, 19, 20.
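Further: peptides expressed intracellularly from a pBAD plasmid library in pooled LB shake-flask culture, induced with 0.3% L-arabinose, DNA abundance read by NGS, three biological replicates, DESeq2 with apeglm shrinkage.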

Sequence | shrunken log2 fold change
RRIRFRPPRLPRPRPRPHVDPRP | -0.00919
RRIRFRPPRLPRPRPRPHVHPRP | -0.0448
RRIRFRPPRLPRPRPRPICFPRP | -0.293
RRIRFRPPRLPRPRPRPICSPRP | -0.0437
RRIRFRPPRLPRPRPRPIDCPRP | -0.046
RRIRFRPPRLPRPRPRPIFRPRP | -0.0966
RRIRFRPPRLPRPRPRPIGQPRP | 0.00854
RRIRFRPPRLPRPRPRPIHGPRP | -0.0163
RRIRFRPPRLPRPRPRPIIVPRP | -0.394
RRIRFRPPRLPRPRPRPIIWPRP | -0.273
RRIRFRPPRLPRPRPRPILEPRP | -0.133
RRIRFRPPRLPRPRPRPILIPRP | -0.194
RRIRFRPPRLPRPRPRPILKPRP | -0.43
RRIRFRPPRLPRPRPRPILLPRP | -0.554
RRIRFRPPRLPRPRPRPILMPRP | -0.0682
RRIRFRPPRLPRPRPRPILPPRP | -0.188
RRIRFRPPRLPRPRPRPIMDPRP | -0.212
RRIRFRPPRLPRPRPRPIMKPRP | -0.679
RRIRFRPPRLPRPRPRPIMPPRP | -0.127
RRIRFRPPRLPRPRPRPINIPRP | -0.113
RRIRFRPPRLPRPRPRPINQPRP | -0.694
RRIRFRPPRLPRPRPRPINSPRP | -0.428
RRIRFRPPRLPRPRPRPIPQPRP | 0.132
RRIRFRPPRLPRPRPRPISLPRP | -0.452
RRIRFRPPRLPRPRPRPISPPRP | -0.211

Sequence | shrunken log2 fold change
RRIRFRPPRLPRPRPRPITNPRP | -0.352
RRIRFRPPRLPRPRPRPIVAPRP | -0.112
RRIRFRPPRLPRPRPRPIVLPRP | -0.196
RRIRFRPPRLPRPRPRPIVPPRP | 0.0537
RRIRFRPPRLPRPRPRPIYNPRP | -0.624
RRIRFRPPRLPRPRPRPKCRPRP | -0.0272
RRIRFRPPRLPRPRPRPKCSPRP | -0.0194
RRIRFRPPRLPRPRPRPKCVPRP | -0.184
RRIRFRPPRLPRPRPRPKDGPRP | -0.184
RRIRFRPPRLPRPRPRPKFMPRP | -0.542
RRIRFRPPRLPRPRPRPKFTPRP | 0.012
RRIRFRPPRLPRPRPRPKGDPRP | 0.054
RRIRFRPPRLPRPRPRPKGNPRP | -0.047
RRIRFRPPRLPRPRPRPKHNPRP | -0.483
RRIRFRPPRLPRPRPRPKICPRP | -0.0416
RRIRFRPPRLPRPRPRPKIGPRP | -0.0769
RRIRFRPPRLPRPRPRPKIIPRP | -0.592
RRIRFRPPRLPRPRPRPKKPPRP | -0.0169
RRIRFRPPRLPRPRPRPKLAPRP | 0.559
RRIRFRPPRLPRPRPRPKMGPRP | -0.122
RRIRFRPPRLPRPRPRPKNCPRP | 1.35
RRIRFRPPRLPRPRPRPKNDPRP | -0.407
RRIRFRPPRLPRPRPRPKPSPRP | 0.462
RRIRFRPPRLPRPRPRPKRDPRP | 0.362
RRIRFRPPRLPRPRPRPKSCPRP | 0.0245

Sequence | shrunken log2 fold change
RRIRFRPPRLPRPRPRPKSYPRP | -0.201
RRIRFRPPRLPRPRPRPKWNPRP | -0.217
RRIRFRPPRLPRPRPRPKYAPRP | -0.145
RRIRFRPPRLPRPRPRPKYGPRP | -0.234
RRIRFRPPRLPRPRPRPLCFPRP | -0.211
RRIRFRPPRLPRPRPRPLCLPRP | -0.431
RRIRFRPPRLPRPRPRPLECPRP | -0.0348
RRIRFRPPRLPRPRPRPLFKPRP | -0.279
RRIRFRPPRLPRPRPRPLFPPRP | -0.23
RRIRFRPPRLPRPRPRPLGAPRP | 0.312
RRIRFRPPRLPRPRPRPLGMPRP | -0.0132
RRIRFRPPRLPRPRPRPLGRPRP | 0.109
RRIRFRPPRLPRPRPRPLHGPRP | -0.216
RRIRFRPPRLPRPRPRPLHHPRP | -0.434
RRIRFRPPRLPRPRPRPLIHPRP | -0.891
RRIRFRPPRLPRPRPRPLKDPRP | -0.276
RRIRFRPPRLPRPRPRPLKFPRP | -0.544
RRIRFRPPRLPRPRPRPLKRPRP | -0.227
RRIRFRPPRLPRPRPRPLKYPRP | -0.262
RRIRFRPPRLPRPRPRPLLQPRP | 0.0394
RRIRFRPPRLPRPRPRPLMCPRP | -0.328
RRIRFRPPRLPRPRPRPLMHPRP | -0.246
RRIRFRPPRLPRPRPRPLMKPRP | -1.06
RRIRFRPPRLPRPRPRPLMVPRP | -0.38
RRIRFRPPRLPRPRPRPLNFPRP | -0.452

Sequence | shrunken log2 fold change
RRIRFRPPRLPRPRPRPLPYPRP | -0.101
RRIRFRPPRLPRPRPRPLQLPRP | -0.51
RRIRFRPPRLPRPRPRPLQVPRP | -0.135
RRIRFRPPRLPRPRPRPLSCPRP | -0.73
RRIRFRPPRLPRPRPRPLTIPRP | -0.219
RRIRFRPPRLPRPRPRPLTRPRP | -0.0631
RRIRFRPPRLPRPRPRPLVAPRP | -0.00793
RRIRFRPPRLPRPRPRPLVFPRP | -0.204
RRIRFRPPRLPRPRPRPLVHPRP | -0.298
RRIRFRPPRLPRPRPRPLWEPRP | -0.12
RRIRFRPPRLPRPRPRPLWIPRP | -0.624
RRIRFRPPRLPRPRPRPLYYPRP | -0.885
RRIRFRPPRLPRPRPRPMATPRP | -0.227
RRIRFRPPRLPRPRPRPMCFPRP | -0.256
RRIRFRPPRLPRPRPRPMCQPRP | -0.123
RRIRFRPPRLPRPRPRPMDPPRP | 0.0482
RRIRFRPPRLPRPRPRPMEVPRP | -0.00205
RRIRFRPPRLPRPRPRPMFIPRP | -0.443
RRIRFRPPRLPRPRPRPMGNPRP | -0.707
RRIRFRPPRLPRPRPRPMIGPRP | 0.0266
RRIRFRPPRLPRPRPRPMIKPRP | -0.749
RRIRFRPPRLPRPRPRPMIMPRP | 0.234
RRIRFRPPRLPRPRPRPMKGPRP | -0.0547
RRIRFRPPRLPRPRPRPMLDPRP | -0.365
RRIRFRPPRLPRPRPRPMMLPRP | -0.139

Sequence | shrunken log2 fold change
RRIRFRPPRLPRPRPRPMNFPRP | -0.283
RRIRFRPPRLPRPRPRPMPQPRP | -0.0791
RRIRFRPPRLPRPRPRPMQLPRP | 0.0166
RRIRFRPPRLPRPRPRPMRPPRP | 0.654
RRIRFRPPRLPRPRPRPMRYPRP | 0.0824
RRIRFRPPRLPRPRPRPMVHPRP | -0.468
RRIRFRPPRLPRPRPRPMVTPRP | -0.138
RRIRFRPPRLPRPRPRPMWEPRP | -0.232
RRIRFRPPRLPRPRPRPMWYPRP | -0.0081
RRIRFRPPRLPRPRPRPNAPPRP | 0.0925
RRIRFRPPRLPRPRPRPNAYPRP | -0.347
RRIRFRPPRLPRPRPRPNCDPRP | -0.144
RRIRFRPPRLPRPRPRPNCFPRP | -0.193
RRIRFRPPRLPRPRPRPNDWPRP | -0.271
RRIRFRPPRLPRPRPRPNEPPRP | -0.00783
RRIRFRPPRLPRPRPRPNEQPRP | 0.027
RRIRFRPPRLPRPRPRPNFGPRP | 0.0849
RRIRFRPPRLPRPRPRPNFMPRP | -0.0155
RRIRFRPPRLPRPRPRPNFNPRP | -0.554
RRIRFRPPRLPRPRPRPNHGPRP | -0.4
RRIRFRPPRLPRPRPRPNIRPRP | -0.184
RRIRFRPPRLPRPRPRPNLQPRP | -0.264
RRIRFRPPRLPRPRPRPNMTPRP | -0.43
RRIRFRPPRLPRPRPRPNNTPRP | -0.999
RRIRFRPPRLPRPRPRPNPCPRP | -0.349

Sequence | shrunken log2 fold change
RRIRFRPPRLPRPRPRPNPSPRP | -0.125
RRIRFRPPRLPRPRPRPNRFPRP | -0.174
RRIRFRPPRLPRPRPRPNRKPRP | -0.173
RRIRFRPPRLPRPRPRPNRNPRP | -0.836
RRIRFRPPRLPRPRPRPNSFPRP | -0.894
RRIRFRPPRLPRPRPRPNSPPRP | -0.462
RRIRFRPPRLPRPRPRPNTGPRP | -0.165
RRIRFRPPRLPRPRPRPNTKPRP | -0.323
RRIRFRPPRLPRPRPRPNTQPRP | -0.309
RRIRFRPPRLPRPRPRPNVPPRP | -0.0369
RRIRFRPPRLPRPRPRPNVVPRP | -0.046
RRIRFRPPRLPRPRPRPNWSPRP | -0.0531
RRIRFRPPRLPRPRPRPNYPPRP | -0.268
RRIRFRPPRLPRPRPRPPAWPRP | 0.354
RRIRFRPPRLPRPRPRPPCKPRP | 0.352
RRIRFRPPRLPRPRPRPPCYPRP | -0.227
RRIRFRPPRLPRPRPRPPDCPRP | 0.191
RRIRFRPPRLPRPRPRPPDSPRP | 0.0539
RRIRFRPPRLPRPRPRPPESPRP | 1.13
RRIRFRPPRLPRPRPRPPGTPRP | 0.316
RRIRFRPPRLPRPRPRPPHAPRP | 0.491
RRIRFRPPRLPRPRPRPPHLPRP | -0.0216
RRIRFRPPRLPRPRPRPPIDPRP | 0.113
RRIRFRPPRLPRPRPRPPKKPRP | 0.847
RRIRFRPPRLPRPRPRPPMEPRP | -0.0751
